Test results from patent publication US20250270304A1.

T1: Activin B (Homo sapiens (Human)) (UniProt P09529)
T1 sequence: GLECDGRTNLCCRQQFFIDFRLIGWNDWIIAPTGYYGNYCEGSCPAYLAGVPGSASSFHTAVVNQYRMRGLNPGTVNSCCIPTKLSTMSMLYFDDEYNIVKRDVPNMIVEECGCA

T2: Inhibin A (Homo sapiens (Human)) (UniProt P05111)
T2 sequence 1: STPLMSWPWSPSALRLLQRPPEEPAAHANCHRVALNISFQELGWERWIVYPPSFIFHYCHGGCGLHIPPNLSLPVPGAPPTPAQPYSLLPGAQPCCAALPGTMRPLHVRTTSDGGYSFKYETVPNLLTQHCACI
T2 sequence 2: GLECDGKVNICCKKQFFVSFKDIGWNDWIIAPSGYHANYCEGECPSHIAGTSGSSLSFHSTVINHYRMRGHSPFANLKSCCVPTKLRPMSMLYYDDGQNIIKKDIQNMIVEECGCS

B1: AB439 (antibody, IgG1, V domains shown)
VH: EVQLVQSGAEVKKPGASVKVSCKASGYTYTGYRISWVRQAPGQGLEWMGWIDPKSGRTNYAQKLQGRGTMTTDPSTSTAYMELRSLRSDDTAVYYCAREVKQWLVPGRGVYWFDPWGQGTLVTVSS
VL: ESALTQPASVSGSPGQSITISCTGTNIGLRSVSWYQQHPGKAPKLMIYDTNIRSSGVSNRFSGSKSGNTASLTISGLQAEDEADYYCSSYTSSSTDVFGGGTKLTVL
B2: AB330 (antibody, IgG1, V domains shown)
VH: QVQLVQSGAEVKKPGASVKVSCKVSGYPSPATISWVRQAPGKGLEWMGWMNPKSGYTNYAQKFQGRVTMTEDTSTDTAYMELSSLKSEDTAVYYCATLHGSGLAFDIWGQGTMVTVSS
VL: DIQMTQSPSSVSASVGDRVTITCRASQDIKSDLAWYQQKPGKAPKLLIYRASARESGVPSRFSGSGSGTDFTLTISSLQPEDFANYYCQQYRSFPWSFGGGTKVEIK

Tests used:
Test in all cases: ELISA, coated antigen, OD450
[1] = target: T1, Activin B (Homo sapiens (Human))
[2] = target: T2, Inhibin A (Homo sapiens (Human))
Mature Activin A (human) = Mature Activin A (human) (UniProt P08476)

Row | Binder | fold-change of OD 450 over negative control (BSA) [1] | fold-change of OD 450 over negative control (BSA) [2] | fold-change of OD 450 over negative control (BSA) (Mature Activin A (human))
1 | B1 | 1.17 fold | 1.38 fold | 
2 | B2 |  |  | 1.39 fold
